According to patent US20240343773A1:
Numbering of substitutions follows the chain as printed. Values belong to the binder of their own block, whether it stands above or below them. Ends that are not written are not given here.

Target: IGF1 receptor (IGF1R) (UniProt P08069)
Test: method not stated; in the absence of glucose

Kd: 30.4 nM
B1: SEQ ID NO: 5 (ligand)
chain: FVDQHLCGSHLVEALYLVCGERGFFYTPKTYDGKGIVEQCCTSICSLYQLENYCG
modifications: ends and bridges not checked; cysteine pairing not given here

Kd: 26.8 nM
B2: SEQ ID NO: 7 (ligand)
chain: B1 chain with D3G
modifications: ends and bridges not checked; cysteine pairing not given here
